Source: patent US9260500B2, “Peptide and use thereof” (Takeda Pharmaceutical Company Limited, priority 2009, dated 2016)
Starred links: 1 amine or outer side, 2 acyl side, 3 side chain; linkers in the order of their positions; H or OH if unused. Non-standard residues stand in square brackets, D forms with d. *: point of attachment. Ser(Me) = methylated serine, COC[C@H](N[*:1])C(=O)[*:2]; βHOAla = beta-homoalanine (β-HOAla), D- or L-form; β‑HOAla = beta-homoalanine, D or L form; 4Pal = N[C@@H](Cc1ccncc1)C(=O)O; Cha = N[C@@H](CC1CCCCC1)C(=O)O; αMeP = C[C@@]1(C(=O)O)CCCN1; Abu = CC[C@H](N)C(=O)O; Nleu = CC(C)CNCC(=O)O; Aib = CC(C)(N)C(=O)O; Bz = O=C(c1ccccc1)*; βAla = NCCC(=O)O

Legend:
human Y2 receptor [1] = target: T1, human Y2 receptor (Homo sapiens, UniProt P49146); assay: Human Y2 Receptor G Protein Binding Assay (GBA), [35S]GTPγS; assay type: biochemical; settings: EC50 of test compound/EC50 of PYY(3-36) (PYY3-36 taken as 1), hY2R/CHO membrane fraction
T1 construct: expressed in transfected cells; membrane fraction
T1 sequence (P49146 1-381): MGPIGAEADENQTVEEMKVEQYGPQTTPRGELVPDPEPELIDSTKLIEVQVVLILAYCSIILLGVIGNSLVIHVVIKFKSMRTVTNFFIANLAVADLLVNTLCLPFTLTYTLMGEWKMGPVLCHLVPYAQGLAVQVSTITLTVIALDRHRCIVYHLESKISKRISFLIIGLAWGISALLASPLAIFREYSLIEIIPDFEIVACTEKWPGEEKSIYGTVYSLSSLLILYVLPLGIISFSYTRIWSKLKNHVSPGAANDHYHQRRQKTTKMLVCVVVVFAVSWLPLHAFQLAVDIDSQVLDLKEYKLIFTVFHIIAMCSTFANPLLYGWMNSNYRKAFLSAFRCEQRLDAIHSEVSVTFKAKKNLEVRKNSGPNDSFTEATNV
In short: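 Agonism measured as [35S]GTPγS binding, read by GF/C filtration and scintillation counting after 120 min at room temperature, using human Y2 membranes at 1 μg protein/mL in pH 7.4 Tris/MgCl2/NaCl/GDP buffer. Compound serially diluted 100 μM–1 nM; EC50 normalized to PYY(3-36) (ratio = compound/PYY).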

human Y2 receptor [2] = target: T1, human Y2 receptor; assay: Receptor Binding Assay (RBA) for Human Y2, [125I]-PYY displacement on hY2R/CHO membrane fraction; settings: IC50 of test compound/IC50 of PYY(3-36) (PYY(3-36) taken as 1)
In short: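 hY2R stably expressed in CHO/dhfr− cells; membrane fraction prepared from cells disrupted in 10 mM NaHCO3, 5 mM EDTA buffer with protease inhibitors. Binding read as displacement of [125I]-PYY.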

Substance	GBA EC50 Ratio (human Y2 receptor [1])	RBA IC50 Ratio (human Y2 receptor [2])
Ac-[N(iBu)Gly24, Cha27,28,36, Aib31]-PYY(23-36) (Ac-S[Nleu]RH[Cha][Cha]NL[Aib]TRQR[Cha]-NH2; SMILES CC(=O)N[C@@H](CO)C(=O)N(CC(=O)N[C@@H](CCCNC(=N)N)C(=O)N[C@@H](Cc1c[nH]cn1)C(=O)N[C@@H](CC1CCCCC1)C(=O)N[C@@H](CC1CCCCC1)C(=O)N[C@@H](CC(N)=O)C(=O)N[C@@H](CC(C)C)C(=O)NC(C)(C)C(=O)N[C@H](C(=O)N[C@@H](CCCNC(=N)N)C(=O)N[C@@H](CCC(N)=O)C(=O)N[C@@H](CCCNC(=N)N)C(=O)N[C@@H](CC1CCCCC1)C(N)=O)[C@@H](C)O)CC(C)C) [compound No. 108]	8.4	20
Ac-[Phe22, D-Pro24, Pya(4)26, Cha27,36, Aib28,31, Lys30]-PYY(22-36) (Ac-FS[dP]R[4Pal][Cha][Aib]NK[Aib]TRQR[Cha]-NH2; SMILES CC(=O)N[C@@H](Cc1ccccc1)C(=O)N[C@@H](CO)C(=O)N1CCC[C@@H]1C(=O)N[C@@H](CCCNC(=N)N)C(=O)N[C@@H](Cc1ccncc1)C(=O)N[C@@H](CC1CCCCC1)C(=O)NC(C)(C)C(=O)N[C@@H](CC(N)=O)C(=O)N[C@@H](CCCCN)C(=O)NC(C)(C)C(=O)N[C@H](C(=O)N[C@@H](CCCNC(=N)N)C(=O)N[C@@H](CCC(N)=O)C(=O)N[C@@H](CCCNC(=N)N)C(=O)N[C@@H](CC1CCCCC1)C(N)=O)[C@@H](C)O) [compound No. 275]	0.89	1.2
Ac-[Phe23, D-Pro24, Abu26, Cha27,28,36, Aib31]-PYY(23-36) (Ac-F[dP]R[Abu][Cha][Cha]NL[Aib]TRQR[Cha]-NH2; SMILES CC[C@H](NC(=O)[C@H](CCCNC(=N)N)NC(=O)[C@H]1CCCN1C(=O)[C@H](Cc1ccccc1)NC(C)=O)C(=O)N[C@@H](CC1CCCCC1)C(=O)N[C@@H](CC1CCCCC1)C(=O)N[C@@H](CC(N)=O)C(=O)N[C@@H](CC(C)C)C(=O)NC(C)(C)C(=O)N[C@H](C(=O)N[C@@H](CCCNC(=N)N)C(=O)N[C@@H](CCC(N)=O)C(=O)N[C@@H](CCCNC(=N)N)C(=O)N[C@@H](CC1CCCCC1)C(N)=O)[C@@H](C)O) [compound No. 107]	5.9	12
Ac-[Ser(Me)23, D-Pro24, Abu26, Cha27,28,36, Aib31]-PYY(23-36) (Ac-[Ser(Me)][dP]R[Abu][Cha][Cha]NL[Aib]TRQR[Cha]-NH2; SMILES CC[C@H](NC(=O)[C@H](CCCNC(=N)N)NC(=O)[C@H]1CCCN1C(=O)[C@H](COC)NC(C)=O)C(=O)N[C@@H](CC1CCCCC1)C(=O)N[C@@H](CC1CCCCC1)C(=O)N[C@@H](CC(N)=O)C(=O)N[C@@H](CC(C)C)C(=O)NC(C)(C)C(=O)N[C@H](C(=O)N[C@@H](CCCNC(=N)N)C(=O)N[C@@H](CCC(N)=O)C(=O)N[C@@H](CCCNC(=N)N)C(=O)N[C@@H](CC1CCCCC1)C(N)=O)[C@@H](C)O) [compound No. 106]	3.8	5.2
Ac-[Thr23, D-Pro24, Pya(4)26, Cha27,36, Aib28,31, Lys30]-PYY(23-36) (Ac-T[dP]R[4Pal][Cha][Aib]NK[Aib]TRQR[Cha]-NH2; SMILES CC(=O)N[C@H](C(=O)N1CCC[C@@H]1C(=O)N[C@@H](CCCNC(=N)N)C(=O)N[C@@H](Cc1ccncc1)C(=O)N[C@@H](CC1CCCCC1)C(=O)NC(C)(C)C(=O)N[C@@H](CC(N)=O)C(=O)N[C@@H](CCCCN)C(=O)NC(C)(C)C(=O)N[C@H](C(=O)N[C@@H](CCCNC(=N)N)C(=O)N[C@@H](CCC(N)=O)C(=O)N[C@@H](CCCNC(=N)N)C(=O)N[C@@H](CC1CCCCC1)C(N)=O)[C@@H](C)O)[C@@H](C)O) [compound No. 211]	0.69	1.1
Ac-[αMePro24, Cha27,28,36, Aib31]-PYY(23-36) (Ac-S[αMeP]RH[Cha][Cha]NL[Aib]TRQR[Cha]-NH2; SMILES CC(=O)N[C@@H](CO)C(=O)N1CCC[C@@]1(C)C(=O)N[C@@H](CCCNC(=N)N)C(=O)N[C@@H](Cc1c[nH]cn1)C(=O)N[C@@H](CC1CCCCC1)C(=O)N[C@@H](CC1CCCCC1)C(=O)N[C@@H](CC(N)=O)C(=O)N[C@@H](CC(C)C)C(=O)NC(C)(C)C(=O)N[C@H](C(=O)N[C@@H](CCCNC(=N)N)C(=O)N[C@@H](CCC(N)=O)C(=O)N[C@@H](CCCNC(=N)N)C(=O)N[C@@H](CC1CCCCC1)C(N)=O)[C@@H](C)O) [compound No. 154]	1.3	2.8
Ac-[β-HOAla24, Pya(4)26, Cha27,36, Aib28,31, Lys30]-PYY(23-36) [compound No. 244] (Ac-S[βHOAla]R[4Pal][Cha][Aib]NK[Aib]TRQR[Cha]-NH2; also: former peak, β-HOAla D/L configuration not assigned)	2.8	2.4
Ac-[β-HOAla24, Pya(4)26, Cha27,36, Aib28,31, Lys30]-PYY(23-36) [compound No. 245] (Ac-S[β‑HOAla]R[4Pal][Cha][Aib]NK[Aib]TRQR[Cha]-NH2; also: β-HOAla at position 2: D or L form not settled)	1.9	0.85
Ac-[βAla24, Pya(4)26, Cha27,36, Aib28,31, Lys30]-PYY(23-36) (Ac-S[βAla]R[4Pal][Cha][Aib]NK[Aib]TRQR[Cha]-NH2; SMILES CC(=O)N[C@@H](CO)C(=O)NCCC(=O)N[C@@H](CCCNC(=N)N)C(=O)N[C@@H](Cc1ccncc1)C(=O)N[C@@H](CC1CCCCC1)C(=O)NC(C)(C)C(=O)N[C@@H](CC(N)=O)C(=O)N[C@@H](CCCCN)C(=O)NC(C)(C)C(=O)N[C@H](C(=O)N[C@@H](CCCNC(=N)N)C(=O)N[C@@H](CCC(N)=O)C(=O)N[C@@H](CCCNC(=N)N)C(=O)N[C@@H](CC1CCCCC1)C(N)=O)[C@@H](C)O) [compound No. 222]	1.1	1.9
Benzoyl-[Asn26, Cha27,28,36, Aib31]-PYY(25-36) (Bz-RN[Cha][Cha]NL[Aib]TRQR[Cha]-NH2; SMILES CC(C)C[C@H](NC(=O)[C@H](CC(N)=O)NC(=O)[C@H](CC1CCCCC1)NC(=O)[C@H](CC1CCCCC1)NC(=O)[C@H](CC(N)=O)NC(=O)[C@H](CCCNC(=N)N)NC(=O)c1ccccc1)C(=O)NC(C)(C)C(=O)N[C@H](C(=O)N[C@@H](CCCNC(=N)N)C(=O)N[C@@H](CCC(N)=O)C(=O)N[C@@H](CCCNC(=N)N)C(=O)N[C@@H](CC1CCCCC1)C(N)=O)[C@@H](C)O) [compound No. 99]	21	19
Benzoyl-[Cha27,28,36, Aib31]-PYY(25-36) (Bz-RH[Cha][Cha]NL[Aib]TRQR[Cha]-NH2; SMILES CC(C)C[C@H](NC(=O)[C@H](CC(N)=O)NC(=O)[C@H](CC1CCCCC1)NC(=O)[C@H](CC1CCCCC1)NC(=O)[C@H](Cc1c[nH]cn1)NC(=O)[C@H](CCCNC(=N)N)NC(=O)c1ccccc1)C(=O)NC(C)(C)C(=O)N[C@H](C(=O)N[C@@H](CCCNC(=N)N)C(=O)N[C@@H](CCC(N)=O)C(=O)N[C@@H](CCCNC(=N)N)C(=O)N[C@@H](CC1CCCCC1)C(N)=O)[C@@H](C)O) [compound No. 64]	18	28
